In publication PMC3168688 (American journal of medical genetics. Part B, …, 2011):

Target: T1, c-Myc-tagged SLC9A9 C-terminal with both mutations (V512G and K534R) (rat, UniProt D4A7H1 494-644, V512G | K534R)
T1 sequence (looked up): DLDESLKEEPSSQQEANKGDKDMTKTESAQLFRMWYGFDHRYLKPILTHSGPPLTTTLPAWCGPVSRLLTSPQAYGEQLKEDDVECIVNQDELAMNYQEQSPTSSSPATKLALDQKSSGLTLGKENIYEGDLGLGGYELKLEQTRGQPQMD
Test: co-IP

fold change of CHP co-precipitated against wild-type SLC9A9 C-terminal: ~2 fold
B1: Flag-tagged calcineurin homologous protein (CHP) (natural protein, rat, UniProt P61023 1-195, looked up)
chain: MGSRASTLLRDEELEEIKKETGFSHSQITRLYSRFTSLDKGENGTLSREDFQRIPELAINPLGDRIINAFFSEGEDQVNFRGFMRTLAHFRPIEDNEKSKDVNGPEPLNSRSNKLHFAFRLYDLDKDDKISRDELLQVLRMMVGVNISDEQLGSIADRTIQEADQDGDSAISFTEFVKVLEKVDVEQKMSIRFLH
